{
  "source": "the DeepSol protein solubility set",
  "data": [
    {"assay": "soluble on expression in E. coli; label from the status in PepcDB or PDB records", "values": [
      {"sequence": "MASQAASKAVTFAYNGTIASTLRKFAWSNLWGGREYGLQFHDTYFEPAPEVTEALRRLNLQEPHVFDQRKIRLSRAHTLALHGEKLPKAEWTQWDQESWYLKPYLDEIEAEKKARAETSGLIPPYQMKQH", "soluble on expression in E. coli": "not soluble"},
      {"sequence": "MASQLTQRGALFLLFFLTPAVTPTWYAGSGYYPDESYNEVYAEEVPQAPALDYRVPRWCYTLNIQDGEATCYSPKGGNYHSSLGTRCELSCDRGFRLIGRRSVQCLPSRRWSGTAYCRQMRCHALPFITSGTYTCTNGVLLDSRCDYSCSSGYHLEGDRSRICMEDGRWSGGEPVCVDIDPPKIRCPHSREKMAEPEKLTARVYWDPPLVKDSADGTITRVTLRGPEPGSHFPEGEHVIRYTAYDRAYNRASCKFIVKVQVRRCPTLKPPQHGYLTCTSAGDNYGASCEYHCDGGYDRQGTPSRVCQSSRQWSGSPPICAPMKINVNVNSAAGLLDQFYEKQRLLIISAPDPSNRYYKMQISMLQQSTCGLDLRHVTIIELVGQPPQEVGRIREQQLSANIIEELRQFQRLTRSYFNMVLIDKQGIDRDRYMEPVTPEEIFTFIDDYLLSNQELTQRREQRDICE", "soluble on expression in E. coli": "soluble"},
      {"sequence": "MASSPQLEEEAAGKLETIHASAMAKSKKKTDVVDSTNLPILELLSLKAPIFQSLLHPELPIIITGFGTGHIVCHRYDPAKLQSHLDRRRRIDTATTGKDAKKGVCPWIRLDIDLETGDLKFVDIEEQQQQKQTGKDEDLGVKTLWKTKRHKGSVRAMCFDSKGDNIFSVGSDNVLKKANTMTGKVVKKVNLSSLFNSEEKKNDKFTKLCASQTHPFILIGDESGNIHVINSENLALSNSIRSIHFGDSINDIFHFDKRSAYKFISLGQTTLAYFDVRDKDAKPNVAGNEDGKILISDDQEDEVLCGCFVDPEVADTLLCGMGEGIVTVWKPNKNDLEDQMSRIKISKDESIDCIVPTLQDDNCVWCGCSNGNIYKVNAKLGKVVEIRNHSELDEVSFVDLDFEYRVVSGGLENIKIWELSSDDVEENASVESDSDEPLSHSDEDLSDDTSSDDETTLVGLSKEELLDELDKDLKEDHQEEKESNSKSVKKRKIMKENNKKKDLYEHGIKKFDDL", "soluble on expression in E. coli": "soluble"},
      {"sequence": "MASSTTFVIVGGGLAGAKAVEALRRSDFGGRIILFGDEEHLPYDRPPLSKEFLAGKKSLSDFTIQTSDWYRDHDVDVRLGVRVSSLDRSAHTVELPDGAAVRYDKLLLATGSAPRRPPIPGSDAAGVHYLRSYNDAVALNSVLVQGSSLAVVGAGWIGLEVAASARQRGVDVTVVETAIQPLLAALGEAVGKVFADLHRDQGVDLRLQTQLEEITAADGKATGLKMRDGSTVAADAVLVAVGAKPNVELAQQAGLAMGEGGVLVDASLRTSDPDIYAVGDIAAAEHPLLGTRVRTEHWANALKQPAVAAAGMLGRPGEYAELPYLFTDQYDLGMEYVGHAPSCDRVVFRGNVAGREFLSFWLDGDSRVLAGMNVNVWDVVDDVKGLIRSGNPVDVDRLVDPQWPLADLTTN", "soluble on expression in E. coli": "not soluble"},
      {"sequence": "MASTELSLKRTLTDILEDELYHTNPGHSQFTSHYQNYHPNASITPYKLVNKNKENNTFTWNHSLQHQNESSAASIPPQQTYHFPIFNKYADPTLTTTTSFTTSEATANDRQINNVHLIPNEIKGASETPLQKTVNLKNIMKVSDPYVPTRNTFNYDVKISNDFFDNGDNLYGNDEEVLFYEDNYNPKMQWSLQDNSAAINNEDARAIFNNEFDSDDDDISDDEEDEIEENCLQQEQHQEEPLLSLDVTPISMFGSDQKTGRAKSSSHLFNEYSYVDSNMDSISSVVSEDLLDERGHEKIEDEDEDNDLDEDDIYDISLLKNRRKQSFVLNKNTIDFERFPSPSTSANVPSTATTGKRKPAKSSSNRSCVSNSNENGTLERIKKPTSAVVSSNASRRKLINYTKKHLSSHSSTNSNSKPSTASPSAHTSSSDGNNEIFTCQIMNLITNEPCGAQFSRSYDLTRHQNTIHAKRKIVFRCSECIKILGSEGYQKTFSRLDALTRHIKSKHEDLSLEQRQEVTKFAKANIGYVMG", "soluble on expression in E. coli": "not soluble"},
      {"sequence": "MASTGVERRKPLENKVALVTASTDGIGLAIARRLAQDGAHVVVSSRKQENVDRTVATLQGEGLSVTGTVCHVGKAEDRERLVAMAVNLHGGVDILVSNAAVNPFFGNIIDATEEVWDKILHVNVKATVLMTKAVVPEMEKRGGGSVLIVSSVGAYHPFPNLGPYNVSKTALLGLTKNLAVELAPRNIRVNCLAPGLIKTNFSQVLWMDKARKEYMKESLRIRRLGNPEDCAGIVSFLCSEDASYITGETVVVGGGTASRL", "soluble on expression in E. coli": "soluble"},
      {"sequence": "MASTKSELIERLATQQSHIPAKTVEDAVKEMLEHMASTLAQGGSGGLTKAEMSEYLFDKLGLSKRDAKELVELFFEEIRRALENGEQVELSGFGNFDLRDKNQRPGRNPKTGEDIPITARRVVTFRPGQKLKSRVENAGGGERIEIRGFGSFSLHYRAPRTGRNPKTGDKVELEGKYVPHFKPGKELRDRANIYGGSGHHHHHH", "soluble on expression in E. coli": "soluble"},
      {"sequence": "MASTTQNTPTKDLAEISERFEKLRARSSNNMATFNTTSSYNRTYEKKVIEEGSPNVRVTTQTHTAIPGMPDLGNIHSSMLSNFPNLAISSPSVVGSQNGNLTSIRVTNTSFHAILDVSKYDADSLKVTVVDNNIIVEGSHGEKEDTYGTIESTFKRRFPLPKAVAPESVQSQLTADGHLTIDAKAPEPKQEGARPIQIKVINTSAEQQKQ", "soluble on expression in E. coli": "not soluble"},
      {"sequence": "MASVELSADVPISPQDTWDHVSELSELGEWLVIHEGWRSELPDQLGEGVQIVGVARAMGMRNRVTWRVTKWDPPHEVAMTGSGKGGTKYGVTLTVRPTKGGSALGLRLELGGRALFGPLGSAAARAVKGDVEKSLKQFAELYGLEHHHHHH", "soluble on expression in E. coli": "not soluble"},
      {"sequence": "MASWSHPQFEKGAETAVPNSSSVPGDPSSMTRKNVLLIVVDQWRADFIPHLMRAEGREPFLKTPNLDRLCREGLTFRNHVTTCVPGGPARASLLTGLYLMNHRAVQNTVPLDQRHLNLGKALRAIGYDPALIGYTTTTPDPRTTSARDPRFTVLGDIMDGFRSVGAFEPNMEGYFGWVAQNGFELPENREDIWLPEGEHSVPGATDKPSRIPKEFSDSTFFTERALTYLKGRDGKPFFLHLGYYRPHPPFVASAPYHAMYKAEDMPAPIRAENPDAEAAQHPLMKHYIDHIRRGSFFHGAEGSGATLDEGEIRQMRATYCGLITEIDDCLGRVFAYLDETGQWDDTLIIFTSDHGEQLGDHHLLGKIGYNAESFRIPLVIKDAGQNRHAGQIEEGFSESIDVMPTILEWLGGETPRACDGRSLLPFLAEGKPSDWRTELHYEFDFRDVFYDQPQNSVQLSQDDCSLCVIEDENYKYVHFAALPPLFFDLKADPHEFSNLAGDPAYAALVRDYAQKALSWRLSHADRTLTHYRSSPQGLTTRNH", "soluble on expression in E. coli": "soluble"},
      {"sequence": "MATASQRNFLAVPDWLDAAILISDEQTSDIFDLAWDMDDFWVFGYGSLMWNPGFAFEERQQARLHGYRRSLCISSNFYRGTEEKPGLVLGLERGGSCLGVAFRVRGKDHDPVMAYLRERELVTNVYKERVVSIALANGRRGSAVTYVADPAHEQYIGGLGVAESAVIIAAATGRSGPNTDYLFNTVQHLQEMGIRDSLLESIAASVGTLSAQSAVVSLPLEHHHHHH", "soluble on expression in E. coli": "not soluble"},
      {"sequence": "MATDQKRGLLIVFEGLDRSGKSTQAKRLVESINKKSTESGDASSSPSAVLQAFPDRSSSIGKLIDQYLRKEIDMDEHALHLLFSADRFSKNQMIRDNIAKGIDVICDRYCYSGVAYSLAKGLPEQWVRSSDVGLPKPDAVLFFDVSPEVAAQRGGFGEERLETATIQQKVAAVMPTLRDDAYWKTVNADGDLDSVEKNVFRIYENLDREKPFESLEKI", "soluble on expression in E. coli": "not soluble"},
      {"sequence": "MATGNRNPENFTSLSPIVKAPITDTLSVPLSQQGRICGFFESQFYRCMEAYGAKMGRKYCDLEHRDFQECVTGDKQKKRADAIREQRCKLFLDGKIAKPYVDNHPEPGQFKTDHFQWNRIN", "soluble on expression in E. coli": "not soluble"},
      {"sequence": "MATHKLSFFEKLANTFGALYRHQAQQFPRRLAILKAVGKHELAPPRSADIPAIKADWAKLQKFIETKQYVNLSIKESLVYSAVALEVVFWFFVGEMIGRRYIFGYIVPANYVSKDTKAKVAEKKRLAALEA", "soluble on expression in E. coli": "not soluble"},
      {"sequence": "MATIIFAGRSNVGKSTLIYRLTGKKVRRGKRPGVTRKIIEIEWKNHKIIDMPGFGFMMGLPKEVQERIKDEIVHFIEDNAKNIDVAVLVVDGKAAPEIIKRWEKRGEIPIDVEFYQFLRELDIPTIVAVNKLDKIKNVQEVINFLAEKFEVPLSEIDKVFIPISAKFGDNIERLKNRIFEVIRERQGRRV", "soluble on expression in E. coli": "soluble"},
      {"sequence": "MATKARVMYDFAAEPGNNELTVTEGEIITVTNPNVGGGWLEGKNNKGEQGLVPTDYVEILPNDGKDPFSC", "soluble on expression in E. coli": "soluble"},
      {"sequence": "MATKKTFTDETYFKLSEAVYQDGTLNSKKINIELSDRTKSNWKVVSKLNDRATNTQAFAVIPEEKGKDGKIYYNHNNMIFVYRGTKESKDFGSDIINVFAGRNSRTSLDRKSKNPFQVSKEWTEEVLKEFNPKNPTSTGHSLGGALSHYNSILYDFNATTYAAPNIYQLLPEDKQKKVRDGFYNNSIIDFTHDDDMIGTFDQFSSPIIGSQYIAERNNVKVGAKGLFGAIPGHYNETFEGCFSSDGTMKLKVDVDSIIKHAQDIDDIIQSLQTNNADLENLEEKLQIGSKKIQNQLEEEIRIGGAYSELTTWDIDDVLTELCTKYKNGVYCFYNPNEFEKYYEMNHQTRRLLKNFQIELIDAAQSFRETDTRLGKWISNNN", "soluble on expression in E. coli": "not soluble"},
      {"sequence": "MATLFIADLHLCVEEPAITAGFLRFLAGEARKADALYILGDLFEAWIGDDDPNPLHRQMAAAIKAVSDSGVPCYFIHGNRDFLLGKRFARESGMTLLPEEKVLELYGRRVLIMHGDTLCTDDAGYQAFRAKVHKPWLQMLFLALPLFVRKRIAARMRANSKEANSSKSLAIMDVNQNAVVSAMEKHQVQWLIHGHTHRPAVHELIANQQPAFRVVLGAWHTEGSMVKVTADDVELIHFPFLEHHHHHH", "soluble on expression in E. coli": "not soluble"},
      {"sequence": "MATSSAASVDMEDIQTVDLMSELLRRMKCASKPDKRLVFIGPPGSGKGTQSPVIKDEFCLCHLSTGDMLRAAVAAKTPLGVKAKEAMDKGELVSDDLVVGIMDEAMNRPKCQKGFILDGFPRTVTQAEKLDEMLNRRGAQIDKVLNFAIDDSVLEERITGRWIHPSSGRSYHTKFAPPKVPGVDDLTGEPLIQRKDDNADVLRSRLDAFHKQTQPVIDYYAKKENLVNIPAEKAPEEVTKVVKKVVST", "soluble on expression in E. coli": "soluble"},
      {"sequence": "MATTCQKRRYGTFRTGISKPGLSTRRFQHRDFSHGDFGTGTFRTAVSPPLTFSSPPTSTVATPYFPMRFINVKSHVSRPPPLHGDIPIGHEGTRVSRHVDDRCGLVVVSRHGRAGGCLSRLEHHHHHH", "soluble on expression in E. coli": "not soluble"},
      {"sequence": "MAVAANKRSVMTLFSGPTDIYSHQVRIVLAEKGVSFEIEHVEKDNPPQDLIDLNPNQSVPTLVDRELTLWESRIIMEYLDERFPHPPLMPVYPVARGESRLYMHRIEKDWYTLMNTIINGSASEADAARKQLREELLAIAPVFGQKPYFLSDEFSLVDCYLAPLLWRLPQLGIEFSGPGAKELKGYMTRVFERDSFLASLTEAEREMRLGRS", "soluble on expression in E. coli": "soluble"},
      {"sequence": "MAVAFYIPDQATLLREAEQKEQQILRLRESQWRFLATVVLETLRQYTSCHPKTGRKSGKYRKPSQ", "soluble on expression in E. coli": "not soluble"},
      {"sequence": "MAVGLGPLPALHPVPGFELGISSAGIKRPGRKDVVVMRCAEGSSVAGVFTLNAFCAAPVILAKQRVQGTVRYLLTNTGNANAGTGEPGLVAARRTCEALAQLTGVDASAVLPYSTGVIGEPLPVEKIEGALQAALDDLSVDNWAAAATGIMTTDTLPKGASRQFTHDGVTITVTGISKGAGMIRPNMATMLGYIATDAKVSQSVLQDLIRDGANKSFNRLTIDGDTSTNDCCMLIATGQADLPEITEAKGLLFEALKKAVFDVCMEVAQAIVRDGEGATKFVTVEVNGGGNHQECLDVGYAVAHSPLIKTALFASDPNWGRILAAVGRAGVPDLDVSKIDVFLGGVCIASQGCRATTYTEEQGSAVMAEAEITIRIELGRGDCSETIWTTDLSHEYVKINAEYRTLEHHHHHH", "soluble on expression in E. coli": "not soluble"}
    ]}
  ]
}
